A short description of this data set: yeast display, Sf9 membrane polyspecificity reagent, FACS + sequencing; frameworks hold sequencing errors. The gist of the method: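 In a synthetic yeast display library (Saccharomyces cerevisiae BJ5465), nanobody expression was induced with galactose for 36–48 hours. FACS gates were set low and high (top ~1%) using anti-HA fluorescence for expression and streptavidin fluorescence for binding of the Sf9 membrane reagent. Each polyreactivity label is drawn from the gate of origin.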
For “QVQLVESGGGLVQAGGTLRLSCSASGIISTYYAMGWYRQAPGKERELVAAITSGGSTYYADSVKGRFTISRDNAKNTVYLQMNSLKPEDTAVYYCATRRIYKWYRYYYWGQCTQVTVSS”, the “polyreactivity (PSR sort gate)” value is given as “high polyreactivity”.

“QVQLVESGGGLVQAGGTLRLSWAASGSNFGFYTMGWYRLAPGKERELVAAITWSDSSTYADSVKGRYTISRDNAKNTVYLQMNSLKPEDTAVYYCNADTTTVEYYPFHYYTYDYWGQGTQVTVSS”: the “polyreactivity (PSR sort gate)” value was “low polyreactivity”.

Turning to “QVQLVESGGGLVQAGGTLRLTCAASGLTFGSNAMGWYRTAPGKERELVAAISVSGSTYYADSVKGRFTISRDNAKNTVYLLMNSLKPEDTAVYYCATYWAAGSRSRYASWGQGTQVTVSS”, the “polyreactivity (PSR sort gate)” value is on record as “high polyreactivity”.

As to “QVQLVESGGGLVQAGRSLRLICAASGRILGGNTMGWYRQAPGKERELVAGISYSGGRTYYADSVQRRFTISRDNAKHTFYLQMNSLKPEDTAVYYCNVPLGRGRKIAYGYWGQGTQVTVSS”, the “polyreactivity (PSR sort gate)” value is on record as “high polyreactivity”.

For the sequence “QVQLVESGGGLVQAGRSLRLICAASGRILVPYTMGWYRQAPGKERDLVAAITIGGRTTYADSVKGRLTISRDNAKNTLYLQMNIMKPEDTAVYYCAKRDWRYEWYGYDYWGQGTQVTVSS”, the “polyreactivity (PSR sort gate)” value is recorded as “low polyreactivity”.

Turning to “QVQLVESGGGLVQAGRSLRLICAASGSIFDWYAMGWYRQAPGKEGELVAAISSGDSTYYADSVKGRFTISRDNAKNTVYLQMNSLKPEDTAVYYCAAVTKLSGIRYHYWGQGTQVTVSS”, the “polyreactivity (PSR sort gate)” value was “low polyreactivity”.

Turning to “QVQLVESGGGLVQAGRSLRLRCPASGLTINSYAMGWYRQAPGKERELVAAIDWSGGRTYYADSVKGRFTISRDNAKNTVYLQMNSLKPEDTAVYYCAAYSRNRALRFNYWGQGTQVTVSS”, the “polyreactivity (PSR sort gate)” value was “high polyreactivity”.

With “QVQLVESGGGLVQAGRSLRLSCAASGFIFDWNAMGWYRQAPGKERELVAAISWSGGRTYYADSVKGRFTISRDNAKNTVYLQMNSLKPEDTAVYYCNARRYFSRDTSGYNYWGQGTQVTVSS”, the “polyreactivity (PSR sort gate)” value is reported as “high polyreactivity”.

Consider “QVQLVESGGGLVQAGRSLRLSCAASGFIFRWYAMGWYRQAPGKERELVAGLTSGDNTYYADSVKGRFTISRDNAKNTVYLQMNSLKPEDTAVSYCAADGWLWSFTGDGWWFDYWGQGTQVTVSS”, for which the “polyreactivity (PSR sort gate)” value was “low polyreactivity”.

“QVQLVESGGGLVQAGRSLRLSCAASGFIFRYYAMGWYRQAPGKETELVAAIRGGGSTYYADSVKGRFTISRDNAKNTVYLQMKSLNPEDTAVYYCAVRWVSRFGISSYDYWGQGTQVTVSS”: the “polyreactivity (PSR sort gate)” value is “high polyreactivity”.

On to “QVQLVESGGGLVQAGRSLRLSCAASGFIFWSNTKGWYRQAPGKERELVAAISYSGARTYYADSVKGRFTISRDNAKNTVYLLMNSLKPEDTAVYDCAAYLWGTHDRMDYWGQGTQVTVSS”, for which the “polyreactivity (PSR sort gate)” value is “high polyreactivity”.

For “QVQLVESGGGLVQAGRSLRLSCAASGIIFEWNGMGWYRQAPGKERELVAALPWSGGSTYYADSVKGRFTISRDNAKNTVYLQMNSLKPEDTAVYYCNAYWKDDFEDGPGRRGMDYWGQGSQVTVSS”, the “polyreactivity (PSR sort gate)” value was “low polyreactivity”.

Regarding “QVQLVESGGGLVQAGRSLRLSCAASGITFESYAMGWYRQAPGKEREFVAAISRSSGSTYYADSVKGRFTISRDNAKNTVYLQMNSLKPEDTAVYYCATRSFRDDGFGRYYYWGQGTLVTVSS”, the “polyreactivity (PSR sort gate)” value was “high polyreactivity”.

As to “QVQLVESGGGLVQAGRSLRLSCAASGLIFYCYVMGWYRQAPRKERELVAGISRNSGSTYYADSVKGRFTISRDNAKNTVYLQMNSLKPEDTAVYYCAKAYYRRYAAPGYDYWGQVTQVTVSS”, the “polyreactivity (PSR sort gate)” value is “low polyreactivity”.

In the case of “QVQLVESGGGLVQAGRSLRLSCAASGLTFSAYAMGWYRQAPGKEREFVAAITDSDGSTYYADSVKGRFTITRDNAKNTVYLQMNSLKPEDTAVYYCAASGSWYYGNWSGGYDYWGQGTQVTVSS”, the “polyreactivity (PSR sort gate)” value was “low polyreactivity”.

In the case of “QVQLVESGGGLVQAGRSLRLSCAASGRIFRQNAMGWYRPAPGKETELVAAIDWNGTSTYADSVKGRFTISRDNAKNTVYFQLNSLKPVDTAVYYCTARYGRTSPDGDYWGQGTQVTVSS”, the “polyreactivity (PSR sort gate)” value is recorded as “low polyreactivity”.

With “QVQLVESGGGLVQAGRSLRLSCAASGRNFTYYAMGWDRQAPGKERELVAAISGSAGSTYYADSVKGRFTISRDNAKNTVYLQMNSLKPEDTAVYYCNAVLVRQRDRGGYWGQGTQVTVSS”, the “polyreactivity (PSR sort gate)” value is “high polyreactivity”.

On to “QVQLVESGGGLVQAGRSLRLSCAASGRTFGGNAMGWYRQAPGKERELVAAIDQSGGSTYYADSVKGRFTISRDNAKNTVYLQMNSLKPEDTAVYYCATHDGGTYYVREPNVKYDYWGQVTQVTVSS”, for which the “polyreactivity (PSR sort gate)” value is listed as “low polyreactivity”.

On to “QVQLVESGGGLVQAGRSLRLSCAASGRTMNGNAMGWYRQAPGKERELVAAITRGGSTYYADSVKGRFTISRDNEKNSVYLQMYSLKPEVTAVYYCAADARYTGYYYWGQGTQVTVSS”, for which the “polyreactivity (PSR sort gate)” value is “high polyreactivity”.

Consider “QVQLVESGGGLVQAGRSLRLSCAASGSIFPGNAMGWYRQAPGKERELVASINWSGGSTYYADSVKGRFTISRDNAKNTVYLQMNSLKPEDTAVYYCNADPGYYDYDYWGQVTQVTVSS”, for which the “polyreactivity (PSR sort gate)” value is recorded as “low polyreactivity”.

On to “QVQLVESGGGLVQAGRSLRLSCAASGSIFRYYAMGWYRQAPGKERELVAAISSSGGSTYYADSVKGRFTISRDNAKNTVYLQMNSLKPEDTAVYYCAAVWLSGYGDNYWGQGTQVTVSS”, for which the “polyreactivity (PSR sort gate)” value is “high polyreactivity”.

Regarding “QVQLVESGGGLVQAGRSLRLSCAASGSILGYYAMGWYRQAPGKERELVAITSGDSTYYADSVNGRFTISRDNAKNTVYLQMNSLKPEDTAVYYCAAEGQNEGYDYWGQGTKVTVSS”, the “polyreactivity (PSR sort gate)” value is reported as “high polyreactivity”.

Turning to “QVQLVESGGGLVQAGRSLRLSCAASGSTFPVNTMGWYRQAPGKERELVAAITKNGANTYYADSVKGRFTISRDNAKNTVYLQMNSLKPEYTAVYYCAALYVYGKSYSRWLVELDYWGQGTQVTVSS”, the “polyreactivity (PSR sort gate)” value is reported as “low polyreactivity”.

Consider “QVQLVESGGGLVQAGRSLRLSCAASGSTFSSYGMGWYRQAPGKDRELDASITIRGGSTYYADSVKGRFTISRDNAKTTVCIQMNSLKPEDTAVYYCAADVTNRGTWVIYGYYYWGQGTQVTVSS”, for which the “polyreactivity (PSR sort gate)” value is “low polyreactivity”.

As to “QVQLVESGGGLVQAGRSLRLSCAASGSTFVPYAMGWYRQAPGKERELVAAITTSGGNTYYADSVKGRFTISRDNAKNTVYLQMNSLKPEDTAVYYCAADTYRRFDYWGQGTQVTVSS”, the “polyreactivity (PSR sort gate)” value was “low polyreactivity”.

With “QVQLVESGGGLVQAGRSLRLSCAASGTFIGYAMVWYRQAPGKERELVAAIDESGGSTYYADSVKGRFTISRDNAKNTVYLQMNSLKPEDTAVYYCAAYRYYSDYDYWGQGTQVTVSS”, the “polyreactivity (PSR sort gate)” value is “low polyreactivity”.

“QVQLVESGGGLVQAGRSLRLSCAASGTIFAFYAMGWYRQAPGIVRELVAAITWRGGRTTYADSVKGRFTISRDNAKNTVYLQMNSLKPEDTAVYYCAAVIHWWYATYDYWGQGTQVTVSS”: the “polyreactivity (PSR sort gate)” value is given as “high polyreactivity”.

For “QVQLVESGGGLVQAGSSLRLSCAASGSTFLYYAMGWYRQAPGKEREMVAAITSSGGRTYYADSVKGRFTNSRDNAKNTDYLQMNSLKPEDTAVYYCARGWPRREQSEYDYWGQGTQVTVSS”, the “polyreactivity (PSR sort gate)” value is on record as “high polyreactivity”.

“QVQLVESGGGLVQAGVRLRLSCAASGFTFAGTAMGWYRQAPGKERELVAAITSGGSTYYADSVKGRFTISRDNAKNTVYLQMNSLKPEDTAVYYCAALVFRGRSFTHDYWGQGTQVTLSS”: the “polyreactivity (PSR sort gate)” value is reported as “high polyreactivity”.

Take “QVQLVESGGGLVQAGVRLRLSCAASGITFYINAMGGYRQAPGKERELVAVIDSRGSSTFYADSVKGRFTISRDTAKNTVYLQMNSLKPEDTAVYYCAAEAPSWYDRQYDYCGQGTQVTVSS”: the “polyreactivity (PSR sort gate)” value is recorded as “low polyreactivity”.

In the case of “QVQLVESGGGLVQAGVSIRLSCAASGSIYENNAMGRYRQAPGKERELVAGITWSGGSTRYADSVKGRFTISRDNAKNTVYLQMNSLKPEDTAVYYCATDDFTYVVAKDGDYWGQGTQVTVSS”, the “polyreactivity (PSR sort gate)” value is “low polyreactivity”.

Consider “QVQLVESGGGLVQAGVSLRISCAAAGFTFERYAMGWYRQAPGKERELVATISRRGGSTNYADSVKGRFTISRDNAKNTVYLQMNSLKPEDTAVYYCARTLYRGKSYHVHSKYDYWGQGTQVTVSS”, for which the “polyreactivity (PSR sort gate)” value is reported as “high polyreactivity”.

“QVQLVESGGGLVQAGVSLRISCAASGFTFPEYDMGWYRQAPGKERELVATISGNGGRTYYADSVKGRFTISRYNAKNTVYLQMNSLKPEDTAVYYCAALLYIRSVVYDYWGQGTQVTVSS”: the “polyreactivity (PSR sort gate)” value was “low polyreactivity”.

As for “QVQLVESGGGLVQAGVSLRLSCAASASTFTKYAMGWYRQAPGKERELVAAITASGGNTYYADSVKGRFTISRDNAKNTVYLQMYSLKPEDTAVYYCATGYHRWSSWALDYWGQGTQVTVSS”, the “polyreactivity (PSR sort gate)” value is given as “high polyreactivity”.

As for “QVQLVESGGGLVQAGVSLRLSCAASGFILGYNAMGWYRQAPAKERELVAAITRGGSTYYADSVKGRFTISRDNSKNTVYLQMNSLKPEDTAVYYCAAAYRGYSSTLWLGHWGQGTQVTVSS”, the “polyreactivity (PSR sort gate)” value was “high polyreactivity”.

For the sequence “QVQLVESGGGLVQAGVSLRLSCAASGFISPKYGMGWYRQAPGKERELVAAITSSGGSTYYADSVKGRFTISRDNAKNTVYLQMNSLKPEDTAVYYCATRQVSRLYPYRYNYWGQGTQVTVSS”, the “polyreactivity (PSR sort gate)” value is reported as “high polyreactivity”.

As for “QVQLVESGGGLVQAGVSLRLSCAASGFTFDYYTMGWYRQAPGKEREFVAAITWNGGTTNYADSVKGRFTISRDNAKNTVYLQMNSLKPEDTAVYYCAATAYWYYSNDSGRSYDYWGQGTQVTVSS”, the “polyreactivity (PSR sort gate)” value is given as “low polyreactivity”.

Regarding “QVQLVESGGGLVQAGVSLRLSCAASGFTFSRYGMGWYRQTPGKERELVAAITWSGGNTNYADSVKGRFTISRDNAKNTVYLQMNSLKPEDTAVYYCNAPRGYWSQSHFDYWGQGTQVNVSS”, the “polyreactivity (PSR sort gate)” value was “high polyreactivity”.

As to “QVQLVESGGGLVQAGVSLRLSCAASGGIFADYAMGWYRQAPGKERELVAAISSGGNTNYADSVKGRFTISRDNAKNTVYLQMNSLKPEDTAVYYCNRDTSYYRYVYYEGNDYWGQGTQVTVSS”, the “polyreactivity (PSR sort gate)” value is “low polyreactivity”.

“QVQLVESGGGLVQAGVSLRLSCAASGNTFRINTKLCYRQAPGKERDLVATITRRGGSTYYADSVKGRFTISRDNAMNTVYLQMNSLNPEDSAVYYCAARVRGTGVYGGYNYWGQGTQVTVSS”: the “polyreactivity (PSR sort gate)” value was “high polyreactivity”.

The record behind these values is the nanobody polyreactivity screen of Harvey et al. (2022).
